Data on 1 substance can be found in paper PMC3293552.

This assay addresses Fluorescein-labeled ATS-FL Q150C variant (Plasmodium falciparum). As to the kind of experiment: fluorescence polarisation. On the technique in general: In fluorescence polarisation assays a small probe gives low polarisation when free and higher when bound to something large.

“PFI1780w fragment spanning residues 80-280 (PHISTc-type domain) (domain or fragment)” had a Kd of 150 µM.

Broadly, the Kd is the free concentration of one partner at which half of the binding sites on the other are occupied at equilibrium, for simple one-to-one binding.
